In the supplement of paper PMC11908140:

B1: library; numbered along this chain (parent)
chain: MRKPRAAVGSGHRKQAASQEGRQKHAKNNSQAKPSACDGLARQPEEVVLQASVSSYHLFRDVAEVTAFRGSLLSWYDQEKRDLPWRRRAEDEMDLDRRAYAVWVSEVMLQQTQVATVINYYTGWMQKWPTLQDLASASLEEVNQLWAGLGYYSRGRRLQEGARKVVEELGGHMPRTAETLQQLLPGVGRYTAGAIASIAFGQATGVVDGNVARVLCRVRAIGADPSSTLVSQQLWGLAQQLVDPARPGDFNQAAMELGATVCTPQRPLCSQCPVESLCRARQRVEQEQLLASGSLSGSPDVEECAPNTGQCHLCLPPSEPWDQTLGVVNFPRKASRKPPREESSATCVLEQPGALGAQILLVQRPNSGLLAGLWEFPSVTWEPSEQLQRKALLQELQRWAGPLPATHLRHLGEVVHTFSHIKLTYQVYGLALEGQTPVTTVPPGARWLTQEEFHTAAVSTAMKKVFRVYQGQQPGTCMGSKRSQVSSPCSRKKPRMGQQVLDNFFRSHISTDAHSLNSAAQ

Variants of: B1
Assay: 8OG:A repair function score (normalized; synonymous = 0, nonsense = -1) (normalized log-likelihood score); higher = more repair activity (WT-like)
Conditions: with 8OG:A DNA repair reporter (GFP) in HEK-293 MUTYH KO cells
In short: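 MUTYH knockout HEK-293 cells carrying lentiviral MUTYH cDNA NNN codon-scan libraries were grown with 10 pg/ml doxycycline and co-transfected with mCherry and a GFP reporter of 8OG:A repair. Viable mCherry+ cells were sorted at 72 h into GFP+ (repair) and GFP− bins, with three replicates per tile, and tile amplicons were sequenced. Rosace fitness scores for each tile were turned into a normalized repair function score anchored on the synonymous and nonsense distributions. Synonymous medians were set to 0 and nonsense medians to -1, and variants below 300 counts per million at the start were dropped.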

Variant	8OG:A repair function score
E90S	-0.0214
P352W	-0.38
V230Q	-0.787
Q240M	-0.867
G209P	-0.887
E303N	-0.0416
L373H	-0.452
G123M	-0.101
A162L	-1
Q182T	-0.0374
T346F	-0.247
A147F	-0.305
E168P	-0.661
A513M	-0.0173
E64T	0.00694
F453T	-0.694
E413N	-0.0589
D249S	-0.402
V458G	-0.853
K493R	-0.00709
Q473A	-0.00985
D322P	-0.322
Q202I	-0.0774
S227R	-0.103

Variant	8OG:A repair function score
L325F	-0.00965
C347W	-1.21
S227K	0.0372
L408Q	-0.293
G434L	-0.158
M108A	-1.06
Q43C	0.138
A51F	-0.116
P306M	-0.0214
A400M	0.54
E168H	-0.103
E451V	-0.135
S518P	-0.0287
L277D	-0.199
E285Q	-0.00364
R283S	-0.203
P338S	-0.0346
F504M	0.0285
R219Q	-0.682
C216L	-0.469
P317V	0.0214
V261Y	-0.342
S138C	-0.385
P185R	-0.264

Variant	8OG:A repair function score
Y56C	-0.0129
D243S	-0.358
K481L	-0.0084
V166L	-0.161
T260S	-0.104
V468C	-0.0116
S231V	-0.0155
R495L	0.017
G258L	-1.12
H420T	-0.525
T417L	-0.0186
A259G	-0.148
S510K	-0.00453
P338Y	-0.0269
Q232E	0.105
Y152C	-0.782
S335T	0.005
A456I	-0.12
L313C	-0.146
Q110H	-0.0864
S197I	-0.959
E168R	-0.0574
S486N	0.00666
K127I	-0.204

Variant	8OG:A repair function score
G171E	-0.526
P185V	-0.299
Q470V	-0.00474
V485Q	-0.0322
A135T	-0.165
S226T	-0.0677
L392I	0.0377
G401A	-0.317
T455E	-0.119
Q498T	0.0263
S343Y	0.129
M125N	-0.838
A192C	-0.572
H514N	0.00779
K493M	-0.00762
G479K	0.00166
I195W	-0.908
V102A	-0.644
E303Q	0.0405
L229T	-0.124
Q144D	-0.5
V284Q	-0.0561
P273D	-1.05
L139S	-0.0783

Variant	8OG:A repair function score
G161Y	-1.04
R491L	-0.00252
W399L	0.1
S153K	-0.0744
V47S	-0.0698
S384T	-0.0483
Y425R	-0.476
R157K	-0.0295
L396W	-0.581
G70A	-0.0222
Y121E	-1.92
A520S	-0.0114
L349Y	-0.257
G155T	-0.218
Q435I	0.00734
P299T	-0.0424
F200C	-0.266
E395A	-0.162
S486Q	-0.0168
K3R	-0.0184
T439L	-0.0119
K80M	-0.162
A212C	-0.00168
Y152F	-0.371

Variant	8OG:A repair function score
T476S	0.00281
L516N	0.0104
Q323Y	-0.013
E395S	0.0493
S292K	-0.0316
R98H	-0.232
R217F	-1.04
R42C	0.0324
T460Q	-0.131
T436W	-0.00145
Q397C	-0.496
L145G	0.0263
N119W	-0.704
V362W	-0.624
A253K	-1.02
E433K	-0.0112
V327N	-0.696
S270M	-0.0147
P84Q	-0.242
F453R	-1.09
W235C	-0.509
T260L	-0.00446
A223T	-0.118
S296V	0.0116

Variant	8OG:A repair function score
R332Q	-0.0904
P264M	-0.233
F453Q	-0.887
R217H	-0.835
R283W	-0.115
M93S	-0.0236
V65D	-0.226
T455I	0.0349
H407P	-0.0456
P84E	-0.125
E160H	-0.264
E452G	-0.228
E413R	-0.0915
M108H	-1.36
L277T	-0.115
L268C	-0.13
K337A	-0.0726
E385Y	-0.00387
G222Y	-0.461
L361E	-1.08
P442A	-0.19
V348Y	-1.02
H454I	-0.184
